{
  "source": "FireProtDB",
  "proteins": {"B1": {"name": "Beta-lactoglobulin wild type, P02754 (protein)", "chain": "MKCLLLALALTCGAQALIVTQTMKGLDIQKVAGTWYSLAMAASDISLLDAQSAPLRVYVEELKPTPEGDLEILLQKWENGECAQKKIIAEKTKIPAVFKIDALNENKVLVLDTDYKKYLLFCMENSAEPEQSLACQCLVRTPEVDDEALEKFDKALKALPMHIRLSFNPTQLEEQCHI"}, "B2": {"name": "Trypsin inhibitor B wild type, P01071 (protein)", "chain": "DFVLDNEGNPLSNGGTYYILSDITAFGGIRAAPTGNERCPLTVVQSRNELDKGIGTIISSPFRIRFIAEGNPLRLKFDSFAVIMLCVGIPTEWSVVEDLPEGPAVKIGENKDAVDGWFRIERVSDDEFNNYKLVFCTQQAEDDKCGDIGISIDHDDGTRRLVVSKNKPLVVQFQKVDKESL"}, "B3": {"name": "Tryptophan synthase alpha chain wild type, P0A877 (protein)", "chain": "MERYESLFAQLKERKEGAFVPFVTLGDPGIEQSLKIIDTLIEAGADALELGIPFSDPLADGPTIQNATLRAFAAGVTPAQCFEMLALIRQKHPTIPIGLLMYANLVFNKGIDEFYAQCEKVGVDSVLVADVPVEESAPFRQAALRHNVAPIFICPPNADDDLLRQIASYGRGYTYLLSRAGVTGAENRAALPLNHLVAKLKEYNAAPPLQGFGISAPDQVKAAIDAGAAGAISGSAIVKIIEQHINEPEKMLAALKVFVQPMKAATRS"}},
  "details": "Thermal, whole UniProt chain shown",
  "key": {"[1]": {"details": "Bos taurus, pH 6.5, Absorbance, None, reversible: no"}, "[2]": {"details": "Bos taurus, pH 7.4, Absorbance, phosphate, reversible: no"}, "[3]": {"details": "Glycine max, pH 7, DSC, HEPES/MOPS/ACES/Tris/triethanolamine/phosphate 17 mM/17 mM/17 mM/10 mM/13 mM/10 mM"}},
  "data": [
    {"protein": "B1", "values": [
      {"measurement": "Tm", "setting": "Bos taurus, pH 4, DSC, Unknown", "result": 82, "unit": "°C"},
      {"measurement": "Tm", "setting": "[1]", "result": 80.1, "unit": "°C"},
      {"measurement": "unfolding enthalpy (van 't Hoff)", "setting": "[1]", "result": 55.5, "unit": "kcal/mol"},
      {"measurement": "Tm", "setting": "[2]", "result": 65.9, "unit": "°C"},
      {"measurement": "unfolding enthalpy (van 't Hoff)", "setting": "[2]", "result": 39.9, "unit": "kcal/mol"}
    ]},
    {"protein": "B2", "values": [
      {"measurement": "Tm", "setting": "[3]", "result": 59, "unit": "°C"},
      {"measurement": "heat capacity change of unfolding", "setting": "[3]", "result": 2.63, "unit": "kcal/mol/K"},
      {"measurement": "unfolding enthalpy (calorimetric)", "setting": "[3]", "result": 103, "unit": "kcal/mol"}
    ]},
    {"protein": "B3", "values": [
      {"measurement": "Tm", "setting": "Escherichia coli (strain K12), pH 8.98, DSC, sodium tetraborate 1 mM", "result": 54.2, "unit": "°C"}
    ]}
  ]
}
